Values quoted from earlier work, collected in patent US20140011241A1, “Method enabling isomerization process flows at lower pH, lower temperature, and in the presence of certain inhibiting compounds by using the xylose isomerase enzyme from the microorganism Fulvimarina pelagi” (priority 2011, published 2014).

Tested on: xylose isomerase

B1: xylose isomerase from Thermus thermophilus: xylose isomerase from Thermus thermophilus and mutants derived from it (U.S. Pat. No. 6,475,768) (protein, UniProt P26997 1-387, looked up)
Xylose isomerase: MYEPKPEHRFTFGLWTVGNVGRDPFGDAVRERLDPVYVVHKLAELGAYGVNLHDEDLIPRGTPPQERDQIVRRFKKALDETGLKVPMVTANLFSDPAFKDGAFTSPDPWVRAYALRKSLETMDLGAELGAEIYVVWPGREGAEVEATGKARKVWDWVREALNFMAAYAEDQGYGYRFALEPKPNEPRGDIYFATVGSMLAFIHTLDRPERFGLNPEFAHETMAGLNFVHAVAQALDAGKLFHIDLNDQRMSRFDQDLRFGSENLKAAFFLVDLLESSGYQGPRHFDAHALRTEDEEGVWAFARGCMRTYLILKERAEAFREDPEVKELLAAYYQEDPAALALLGPYSREKAEALKRAELPLEAKRRRGYALERLDQLAVEYLLGVRG
  activity at low temperature: very low
  pH at which active: 6
